Results reported in paper PMC9336126 (Communications Biology, 2022).

B1: ADI-62113 Fab (Fab, V domains shown)
VH: QVQLQQSGAEVKKPGASVKLSCKASGYTFSVFPIHWVRQAPGQRLEWMGWHNAGDGDTKYSQKFQGRVTIISDTSASTAYMELSSLKSEDTAVYYCARAARPYYDRRGYFFRADYFQHWGQGTLVTVSS
VL: DIQVTQSPSSLSASVGDRVTITCQASQDIKNSLNWYQQKPGKAPKLLISDASNLETGVPSRFSGNGSGTDFTFTISSLQPEDIATYYCQQYDNLITFGPGTKVEIK
B2: ADI-62113 IgG (antibody, V domains shown)
VH: B1 VH
VL: B1 VL

Assays:
[1] = target: T1, SARS-CoV-2 spike receptor-binding domain (RBD), residues 333-529 (SARS-CoV-2 ancestral (Wuhan-Hu-1, …, UniProt P0DTC2)); test: crystal structure; conditions: both partners purified
T1 construct: also called SARS-CoV-2 RBD; wildtype RBD

[2] = target: T2, SARS-CoV-2 WT RBD (Acro Biosystems, Cat #SPD-C52H3) (SARS-CoV-2 ancestral wildtype, UniProt P0DTC2); test: ELISA; conditions: both partners purified
T2 construct: also called wildtype RBD; ancestral wildtype SARS-CoV-2 RBD; source: bought: Acro Biosystems

Row | Binder | binding result [1] | binding result [2]
1 | B1 | binds | –
2 | B2 | – | binds
